Data on four molecules can be found in patent publication US20200368361A1 (Regeneron, published 2020).

Experiment [1] addresses T1, full length monkey MSR1 on HEK293.mfMSR1 cells (Macaca fascicularis, UniProt A0A2K5UWE2 1-451).
T1 construct: whole, on cells; also called mfMSR1 engineered cells
T1 sequence: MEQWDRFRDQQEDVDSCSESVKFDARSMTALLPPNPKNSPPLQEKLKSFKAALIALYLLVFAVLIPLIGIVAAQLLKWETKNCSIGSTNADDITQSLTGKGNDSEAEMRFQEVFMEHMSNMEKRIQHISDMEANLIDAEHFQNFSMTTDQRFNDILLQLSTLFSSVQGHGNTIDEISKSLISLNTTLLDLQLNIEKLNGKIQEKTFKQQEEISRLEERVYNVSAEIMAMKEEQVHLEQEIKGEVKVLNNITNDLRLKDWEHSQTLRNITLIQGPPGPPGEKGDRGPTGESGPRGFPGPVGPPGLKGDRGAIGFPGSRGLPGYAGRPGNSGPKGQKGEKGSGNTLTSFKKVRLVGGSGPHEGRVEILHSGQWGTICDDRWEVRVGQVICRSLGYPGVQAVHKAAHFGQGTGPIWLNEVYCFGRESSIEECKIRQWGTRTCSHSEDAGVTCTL
Description: ECL cell binding (Meso Scale), ratio to isotype control compared with parental HEK293.

The target in experiment [2] is T2, monkey MSR1 extracellular domain expressed with a N-terminal hexahistidine-myc-myc tag (HMM-mfMSR1) (monkey (Macaca fascicularis)).
T2 chain: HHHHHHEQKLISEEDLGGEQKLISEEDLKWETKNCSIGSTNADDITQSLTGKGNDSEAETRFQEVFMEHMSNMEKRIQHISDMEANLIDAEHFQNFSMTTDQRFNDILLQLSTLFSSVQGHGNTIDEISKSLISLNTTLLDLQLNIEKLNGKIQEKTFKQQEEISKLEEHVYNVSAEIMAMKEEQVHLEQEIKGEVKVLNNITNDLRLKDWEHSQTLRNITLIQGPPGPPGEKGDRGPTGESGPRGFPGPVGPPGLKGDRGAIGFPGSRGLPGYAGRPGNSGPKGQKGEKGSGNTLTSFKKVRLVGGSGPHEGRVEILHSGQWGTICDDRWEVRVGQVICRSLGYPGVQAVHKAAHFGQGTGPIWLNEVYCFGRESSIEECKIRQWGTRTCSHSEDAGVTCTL
Description: SPR Biacore, 25C, mAb captured by anti-human Fc, MSR1 as analyte; calculated from kd fixed at 1.00E-05.
Description: (§1) Binding affinities and kinetic constants of human anti-MSR1 antibodies for different MSR1 reagents were determined by real-time surface plasmon resonance (Biacore 4000). All binding studies were performed in 10 mM HEPES, 150 mM NaCl, 3 mM EDTA, and 0.05% v/v Surfactant Tween-20, pH 7.4 (HBS-ET) running buffer at 25° C. and 37° C.
(§2) The association rate (kₐ) and dissociation rate (kd) were determined by fitting the real-time binding sensorgrams to a 1:1 binding model with mass transport limitation using Scrubber 2.0 c curve-fitting software.

Experiment [3] has as its target T3, human MSR1 extracellular domain expressed with a N-terminal nonahistidine tag (His9-hMSR1); R&D Systems, Cat … (human, UniProt P21757 77-451).
T3 construct: extracellular domain; Bought protein; also called His-hMSR1
T3 sequence: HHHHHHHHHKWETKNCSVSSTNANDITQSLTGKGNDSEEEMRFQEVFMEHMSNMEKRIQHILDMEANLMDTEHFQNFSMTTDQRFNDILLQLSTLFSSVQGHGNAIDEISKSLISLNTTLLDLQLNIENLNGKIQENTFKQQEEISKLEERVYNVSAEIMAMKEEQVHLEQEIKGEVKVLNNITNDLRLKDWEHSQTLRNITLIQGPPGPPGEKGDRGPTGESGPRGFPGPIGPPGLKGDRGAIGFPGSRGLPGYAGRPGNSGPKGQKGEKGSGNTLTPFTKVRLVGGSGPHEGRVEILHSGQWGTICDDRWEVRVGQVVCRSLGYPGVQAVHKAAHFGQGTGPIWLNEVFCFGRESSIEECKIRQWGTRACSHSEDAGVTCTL
Described as above.
Description: as §1, §2

In experiment [4] the target is T4, full length monkey MSR1 on HEK293.mfMSR1 cells (Macaca fascicularis, UniProt A0A2K5UWE2 1-451).
T4 construct: whole, on cells
T4 sequence: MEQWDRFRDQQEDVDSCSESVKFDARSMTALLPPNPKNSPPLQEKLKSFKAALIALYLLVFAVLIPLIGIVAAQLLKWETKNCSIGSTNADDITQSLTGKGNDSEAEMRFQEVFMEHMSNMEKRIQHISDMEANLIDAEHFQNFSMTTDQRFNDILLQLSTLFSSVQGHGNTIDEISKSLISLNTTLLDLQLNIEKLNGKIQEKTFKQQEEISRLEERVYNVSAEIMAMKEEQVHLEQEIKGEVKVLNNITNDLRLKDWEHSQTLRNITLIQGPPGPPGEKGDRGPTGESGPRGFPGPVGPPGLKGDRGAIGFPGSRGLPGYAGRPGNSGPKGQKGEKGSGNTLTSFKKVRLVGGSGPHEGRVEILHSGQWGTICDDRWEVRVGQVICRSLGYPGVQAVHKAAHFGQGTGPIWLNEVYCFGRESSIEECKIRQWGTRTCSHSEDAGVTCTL
Description: ECL cell binding, HEK293.mfMSR1.
Description: (§3) All cells were washed once with 1×PBS with Ca²⁺/Mg²⁺ and counted with a Cellometer™ Auto T4 cell counter (Nexcelom Bioscience). Approximately 1.0×10⁴ cells were seeded separately onto 96-well carbon electrode plates [MULTI-ARRAY high bind plate, Meso Scale Diagnostics] and incubated for 1 hour at 37° C. Non-specific binding sites were then blocked by 2% BSA (w/v) in PBS with Ca²⁺/Mg²⁺ for 1 hour at room temperature. THP-1 cells were pre-incubated for 0.5 hours at room temperature in sample dilution buffer with: 1) 1 mg/mL Fc receptor block reagents to block Fc gamma receptors on THP-1 cell surface [whole molecule human IgG (Jackson Immunoresearch, Cat #009-000-003) for wells being tested with anti-MSR1-mFc antibodies or 2) whole molecule mIgG (Jackson Immunoresearch, Cat #015-000-003) for wells being tested with anti-MSR1-hFc antibodies. Antibody binding on HEK293.Myc.hMSR1, HEK293.mfMSR1 and HEK293 cells was tested without Fc receptor block reagents. […] Plates were then washed to remove unbound antibodies an AquaMax2000 plate washer with a cell washing head (MDS Analytical Technologies). […] Plates were washed and developed with Read Buffer (Meso Scale Diagnostics, Cat #R92TD-2) according to manufacturer's recommended procedure and luminescent signals were recorded with a SECTOR Imager 600 (Meso Scale Diagnostics). Luminescence intensity, measured in relative light units (RLU), was recorded to indicate the binding intensity of each antibody at the range of concentrations.

The target of experiment [5] is T5, human MSR1 extracellular domain expressed with a N-terminal nonahistidine tag (human, UniProt P21757 77-451).
T5 construct: extracellular domain; Bought reagent; also called His9-hMSR1
T5 sequence: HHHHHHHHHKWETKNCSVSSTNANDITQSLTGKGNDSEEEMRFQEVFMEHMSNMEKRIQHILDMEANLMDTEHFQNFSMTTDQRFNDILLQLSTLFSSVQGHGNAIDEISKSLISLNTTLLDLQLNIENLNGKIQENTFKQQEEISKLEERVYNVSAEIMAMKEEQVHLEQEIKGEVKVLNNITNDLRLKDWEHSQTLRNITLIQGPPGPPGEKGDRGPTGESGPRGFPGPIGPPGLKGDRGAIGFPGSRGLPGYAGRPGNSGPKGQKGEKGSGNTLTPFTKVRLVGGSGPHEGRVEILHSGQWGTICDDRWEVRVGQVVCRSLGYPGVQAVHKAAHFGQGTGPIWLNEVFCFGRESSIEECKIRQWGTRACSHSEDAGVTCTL
Description: SPR 37C, mAb captured; no dissociation seen, kd fixed.
Description: as §1, §2

The target in experiment [6] is T6, monkey MSR1 extracellular domain expressed with a N-terminal hexahistidine-myc-myc tag (monkey (Macaca fascicularis)).
T6 construct: also called HMM-mfMSR1
T6 chain: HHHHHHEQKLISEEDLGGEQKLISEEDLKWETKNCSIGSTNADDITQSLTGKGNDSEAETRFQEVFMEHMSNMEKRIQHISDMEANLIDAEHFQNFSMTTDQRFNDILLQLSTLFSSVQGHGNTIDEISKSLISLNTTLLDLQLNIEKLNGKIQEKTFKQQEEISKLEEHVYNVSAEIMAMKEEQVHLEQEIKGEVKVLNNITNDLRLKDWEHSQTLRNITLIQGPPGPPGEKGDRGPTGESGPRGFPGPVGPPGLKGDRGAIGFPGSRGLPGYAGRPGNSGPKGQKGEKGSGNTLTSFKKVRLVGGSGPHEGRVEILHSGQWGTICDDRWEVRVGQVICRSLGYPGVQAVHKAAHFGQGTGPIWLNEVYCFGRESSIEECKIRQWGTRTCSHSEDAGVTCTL
The experiment is described as above.
Description: as §1, §2

For experiment [7], the target named is T7, full length human MSR1 with a C-terminal Myc tag on HEK293.Myc.hMSR1 cells (human, UniProt P21757 1-451).
T7 construct: whole, on cells
T7 sequence (looked up): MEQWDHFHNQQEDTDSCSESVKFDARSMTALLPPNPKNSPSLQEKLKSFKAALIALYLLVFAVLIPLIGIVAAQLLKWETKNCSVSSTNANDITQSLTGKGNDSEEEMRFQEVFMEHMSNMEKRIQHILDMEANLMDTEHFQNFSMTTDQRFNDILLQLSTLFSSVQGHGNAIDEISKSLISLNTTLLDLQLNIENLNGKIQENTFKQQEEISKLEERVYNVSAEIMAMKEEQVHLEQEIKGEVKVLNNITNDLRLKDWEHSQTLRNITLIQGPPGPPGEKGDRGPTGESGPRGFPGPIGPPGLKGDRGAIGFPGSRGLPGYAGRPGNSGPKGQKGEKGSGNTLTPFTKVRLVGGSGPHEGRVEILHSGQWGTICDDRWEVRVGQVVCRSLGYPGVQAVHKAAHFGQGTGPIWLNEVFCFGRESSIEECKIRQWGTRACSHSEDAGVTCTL
As to the kind of experiment: ECL cell binding, HEK293.Myc.hMSR1.
Description: as §3

Experiment [8] concerns the target T8, mouse MSR1 on RAW264.7 cells (mouse, UniProt P30204 1-458).
T8 construct: whole, on cells
T8 sequence (looked up): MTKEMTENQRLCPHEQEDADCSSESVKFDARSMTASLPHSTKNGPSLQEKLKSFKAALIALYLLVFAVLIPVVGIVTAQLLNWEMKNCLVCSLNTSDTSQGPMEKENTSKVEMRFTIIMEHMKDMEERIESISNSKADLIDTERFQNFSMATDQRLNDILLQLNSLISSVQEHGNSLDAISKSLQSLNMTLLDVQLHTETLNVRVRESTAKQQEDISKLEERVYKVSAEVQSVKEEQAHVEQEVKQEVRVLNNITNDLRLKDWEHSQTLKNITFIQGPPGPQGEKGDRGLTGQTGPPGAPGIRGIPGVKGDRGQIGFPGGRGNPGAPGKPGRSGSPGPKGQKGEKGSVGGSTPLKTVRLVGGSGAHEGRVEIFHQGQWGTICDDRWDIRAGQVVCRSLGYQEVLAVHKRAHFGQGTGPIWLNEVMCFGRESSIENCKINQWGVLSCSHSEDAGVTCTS
Description: flow cytometry, RAW264.7 cells, 10 ug/mL.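 Note: antibodies bound to RAW264.7 cells for 30 min on ice after Fc block with mouse IgG, S/N is MFI relative to unstained cells.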 Background: In flow cytometry, cells or beads pass a laser one at a time.
Description: To block binding to Fc receptors, RAW264.7 cells were incubated for 30 minutes at 4° C. with 500 μg/mL mouse IgG (Jackson ImmunoResearch, Cat #015-000-003) diluted in staining buffer, while B16F10.9 cells remained in staining buffer. Following Fc receptor blocking, 10 μg/mL of anti-MSR1 antibodies or an isotype control antibody were added to the cells and were subsequently incubated for 30 minutes on ice. […] The signal to noise (S/N) was determined by calculating the ratio of the anti-MSR1 antibodies or the control antibodies MFI to the unstained sample MFI (Table 16).

B1: H1xH29273P2 (antibody, V domains shown)
VH: QVQLVESGGGVVQSGRSLRLSCAAAGFTFSNYGMHWVRQAPGKGLEWVALMSFDGSDKYYADSVKGRFTISRDNSKNTLYLQMNSLRAEDTALYYCAKGYDFWSGYWDYWGQGTLVTVSS
VL: not shown
notes: The H1xH prefix is not explained for the anti-MSR1 antibodies; Fc form as tested not clear
B1: in experiment [1], the binding result was “no binding (tested: 11 nM)”.

B2: H1H21234N (antibody, V domains shown)
VH: QVQLQESGPGLVKPSETLSLTCTVTGGSISRNYWSWIRQPPGKGLEWIGYIYYSGSIDYNPSLKSRVTISVDTSKNQFSLKLSSMTAADTAVYYCARDRWNWKYGMDVWGQGTTVIVSS
VL: EIVLTQSPGTLSLSPGERATLSCRASQTVRNNYLAWYHQKPGQAPRLLIYGASSRATGIPDRFSGSGSGTDFTLTISRLEPEDFTVYYCHQYGNSPWTFGQGTKMEIKR
notes: original human IgG1 Fc (no N297 mutation)
For B2, the “t½” value in experiment [2] and in experiment [3] was 19.2 h throughout.

B3: H1H21234N (antibody, human IgG1, V domains shown)
VH: QVQLQESGPGLVKPSETLSLTCTVTGGSISRNYWSWIRQPPGKGLEWIGYIYYSGSIDYNPSLKSRVTISVDTSKNQFSLKLSSMTAADTAVYYCARDRWNWKYGMDVWGQGTTVIVSS
VL: EIVLTQSPGTLSLSPGERATLSCRASQTVRNNYLAWYHQKPGQAPRLLIYGASSRATGIPDRFSGSGSGTDFTLTISRLEPEDFTVYYCHQYGNSPWTFGQGTKMEIKR
notes: original human IgG1 Fc
As for B3, the “binding signal ratio to isotype control (11 nM)” value is 31 fold in experiment [4] and 32 fold in experiment [7]. Also, the Kd (as a rule, the free concentration of one partner at which half of the binding sites on the other are occupied at equilibrium, for simple one-to-one binding) was at most 0.0148 nM in experiment [5] and at most 0.0138 nM in experiment [6].

B4: H1H21234N-N297Q (antibody, human IgG1, V domains shown)
VH: QVQLQESGPGLVKPSETLSLTCTVTGGSISRNYWSWIRQPPGKGLEWIGYIYYSGSIDYNPSLKSRVTISVDTSKNQFSLKLSSMTAADTAVYYCARDRWNWKYGMDVWGQGTTVIVSS
VL: EIVLTQSPGTLSLSPGERATLSCRASQTVRNNYLAWYHQKPGQAPRLLIYGASSRATGIPDRFSGSGSGTDFTLTISRLEPEDFTVYYCHQYGNSPWTFGQGTKMEIKR
notes: human IgG1 Fc with N297Q
For B4, the “binding signal ratio to isotype control (11 nM)” value in experiment [4] is 35 fold; in experiment [7], 43 fold. Besides, the figures for the dissociation constant Kd in experiment [5] and in experiment [6] were at most 0.0127 nM and at most 0.0133 nM, respectively. Also, the MFI in experiment [8] came to 7050. This molecule also registered a S/N in experiment [8] of 3.
